Assay results taken from patent US20120121576A1 (ACCELERON PHARMA, published 2012).

Experiments:
[1] = target: T1, ActRIIA-Fc (ActRIIA-mFc, dimeric protein) (human, UniProt P27037 20-135); test: SPR (BIACORE); Ab-14E1 captured by immobilized anti-mFc IgG, ActRIIA-Fc as analyte
Description: (§1) FIG. 9 depicts the kinetics of ActRIIA-Fc binding to Ab-14E1 as determined by BIACORE™-based analysis. A. Ab-14E1 was captured on a chip with covalently immobilized anti-mFC IgG and then exposed to ActRIIA-Fc at different concentrations. […] RU, relative units.

[2] = target: ActRIIA expressed by A204 human rhabdomyosarcoma cells (human, UniProt P27037 20-513); test: cell-based or functional assay
Chain of ActRIIA expressed by A204 human rhabdomyosarcoma cells (P27037 20-513 limits assumed): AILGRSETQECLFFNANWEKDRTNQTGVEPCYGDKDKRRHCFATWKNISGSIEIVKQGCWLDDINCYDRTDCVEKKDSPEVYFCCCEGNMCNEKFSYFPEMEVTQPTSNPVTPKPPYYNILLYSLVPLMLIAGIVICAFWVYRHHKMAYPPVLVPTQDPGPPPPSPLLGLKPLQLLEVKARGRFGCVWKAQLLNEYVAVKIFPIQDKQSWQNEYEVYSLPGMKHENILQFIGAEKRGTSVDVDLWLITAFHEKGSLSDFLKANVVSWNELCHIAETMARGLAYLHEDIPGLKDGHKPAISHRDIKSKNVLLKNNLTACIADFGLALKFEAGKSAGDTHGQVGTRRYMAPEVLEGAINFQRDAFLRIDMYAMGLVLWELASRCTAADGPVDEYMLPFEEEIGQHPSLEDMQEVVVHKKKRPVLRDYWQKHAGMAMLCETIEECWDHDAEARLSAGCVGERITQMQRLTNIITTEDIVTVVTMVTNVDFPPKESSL

[3] = target: T1, ActRIIA-Fc (ActRIIA-mFc, dimeric …); test: SPR (BIACORE): Ab-14E1 captured on a CM5 chip by immobilized anti-mFc IgG, ActRIIA-mFc injected at different concentrations, nonlinear regression
Description: as §1

[4] = target: T2, monomeric ActRIIA tagged with histidine (ActRIIA-His) (human, UniProt P27037 20-135); test: SPR (BIACORE)
T2 construct: also called monomeric extracellular domain of ActRIIA tagged with histidine
T2 sequence (P27037 other isoform, or with tags, fused parts or gaps limits assumed): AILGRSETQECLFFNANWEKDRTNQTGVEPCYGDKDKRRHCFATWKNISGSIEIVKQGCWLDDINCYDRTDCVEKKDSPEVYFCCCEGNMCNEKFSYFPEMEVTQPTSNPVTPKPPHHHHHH

T1 sequence (P27037 20-135 limits assumed): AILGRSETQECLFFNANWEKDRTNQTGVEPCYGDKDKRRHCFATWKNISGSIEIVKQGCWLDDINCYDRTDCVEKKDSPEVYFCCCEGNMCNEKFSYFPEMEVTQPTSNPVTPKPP

B1: Ab-14E1 (antibody 14E1; hybridoma subclone 14E1.H8.H1) (antibody, V domains shown)
VH: DVQLQESGPGLVKPSQSLSLTCSVTGYSITSGYYWNWIRQFPGNKLEWMGYISYDGSNNYNPSLINRISITRDTSKNQFFLKLNSVTTEDTATYFCASYAYRNDVRFAYWGQGTLVTVSA
VL: DIQMTQTTSSLSASLGDRVTISCRASQDISNFLNWYQQKPDGTVKLLIYFTSRLHSGVPSRFSGSGSGTDYSLTITNLEQEDIATYFCQQGNTLPWTFGGGTKLEIK
**Q.** Which Kd [1] does the source give for B1 here?
**A.** Its Kd is about 12 pM.

**Q.** What about the koff [1] of the same binder?
**A.** Its koff is about 1e-06 s⁻¹.

**Q.** And the “IC50 of inhibition of activin A-stimulated reporter gene expression (pGL3(CAGA)12 luciferase) in A204 cells” value [2]?
**A.** The value was 57.1 ng/ml.

**Q.** What about the kon [3] of the same binder?
**A.** The kon was 86000 M⁻¹ s⁻¹.

**Q.** And the “fold lower affinity than for ActRIIA-mFc” value [4]?
**A.** Its value is 10 fold.
